We go through 1 protein from patent US7076372 (Takeda / Millennium, dated 2006).

This data set deals with the molecule itself. Kind of data set: X-ray crystal structure, two MvaS molecules in the asymmetric unit.

B1: MvaS from E. faecalis (HMG-CoA Synthase), full-length with non-cleavable carboxy-terminal six histidine tag, seleno-methionine labeled (enzyme)
chain: MTIGIDKISFFVPPYYIDMTALAEARNVDPGKFHIGIGQDQMAVNPISQDIVTFAANAAEAILTKEDKEAIDMVIVGTESSIDESKAAAVVLHRLMGIQPFARSFEIKEACYGATAGLQLAKNHVALHPDKKVLVVAADIAKYGLNSGGEPTQGAGAVAMLVASEPRILALKEDNVMLTQDIYDFWRPTGHPYPMVDGPLSNETYIQSFAQVWDEHKKRTGLDFADYDALAFHIPYTKMGKKALLAKISDQTEAEQERILARYEESIVYSRRVGNLYTGSLYLGLISLLENATTLTAGNQIGLFSYGSGAVAEFFTGELVAGYQNHLQKETHLALLDNRTELSIAEYEAMFAETLDTDIDQTLEDELKYSISAINNTVRSYRNKGHHHHHH
modifications: selenomethionine (MSE) in place of methionine, 100% incorporation by mass spectrometry
notes: Crystallised as a complex with the small molecule HMG-CoA; There are two MvaS molecules in the asymmetric unit, described as a dimer; Coordinates lack residues 1 and 384-391 (molecule A) and residues 1 and 388-391 (molecule B); also called MvaS Ef
For the protein B1, the binding result is recorded as “binds”.
